{"source": "paper doi:10.1101/2022.08.12.503774", "about": "(bioRxiv, 2022)", "biological_target": "the molecule itself", "experiment": "cryo-EM structure", "data": [{"protein": "MinCys EAAT3 K269C/W441C crosslinked using Hg2+ (EAAT3-X) (natural protein, human, UniProt P43005 1-524, looked up, Hg2+ crosslink between C269 and C441) MGKPARKGAEWKRFLKNNWVLLSTVAAVVLGITTGVLVREHSNLSTLEKFYFAFPGEILMRMLKLIILPLIISSMITGVAALDSNVSGKIGLRAVVYYFATTLIAVILGIVLVVSIKPGVTQKVGEIARTGSTPEVSTVDAMLDLIRNMFPENLVQAAFQQYKTKREEVKPPSDPEMTMTEESFTAVMTTAISKTKTKEYKIVGMYSDGINVLGLIVFALVFGLVIGKMGEKGQILVDFFNALSDATMKIVQIIMWYMPLGILFLIAGCIIEVEDWEIFRKLGLYMATVLTGLAIHSIVILPLIYFIVVRKNPFRFAMGMAQALLTALMISSSSATLPVTFRCAEENNQVDKRITRFVLPVGATINMDGTALYEAVAAVFIAQLNDLDLGIGQIITISITATSASIGAAGVPQAGLVTMVIVLSAVGLPAEDVTLIIAVDCLLDRFRTMVNVLGDAFGTGIVEKLSKKELEQMDVSSEVNIVNPFALESTILDNEDSDTKKSYVNGGFAVDKSDTISFTQTSQF", "values": [{"measurement": "binding result", "value": "binds"}]}]}
